Experimental data reported in patent US20040052788A1 (IMMUNEX, published 2004).

T1: human CD30 (human, UniProt P28908 19-385, limits assumed)
T1 sequence (looked up): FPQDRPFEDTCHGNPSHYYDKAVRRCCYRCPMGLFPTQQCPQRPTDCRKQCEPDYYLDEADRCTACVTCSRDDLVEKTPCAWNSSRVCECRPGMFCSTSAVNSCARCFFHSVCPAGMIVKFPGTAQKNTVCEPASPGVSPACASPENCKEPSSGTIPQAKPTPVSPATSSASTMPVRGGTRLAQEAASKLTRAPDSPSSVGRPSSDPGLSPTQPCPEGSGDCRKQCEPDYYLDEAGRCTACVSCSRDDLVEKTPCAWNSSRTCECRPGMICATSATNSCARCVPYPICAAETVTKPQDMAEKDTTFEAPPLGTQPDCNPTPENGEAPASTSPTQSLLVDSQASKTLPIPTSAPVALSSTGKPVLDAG

B1: human TRAIL (TNF Related Apoptosis Inducing Ligand), as used in the receptor binding analysis (ligand)
chain: MAMMEVQGGPSLGQTCVLIVIFTVLLQSLCVAVTYVYFTNELKQMQDKYSKSGIACFLKEDDSYWDPNDEESMNSPCWQVKWQLRQLVRKMILRTSEETISTVQEKQQNISPLVRERGPQRVAAHITGTRGRSNTLSSPNSKNEKALGRKINSWESSRSGHSFLSNLHLRNGELVIHEKGFYYIYSQTYFRFQEEIKENTKNDKQMVQYIYKYTSYPDPILLMKSARNSCWSKDAEYGLYSIYQGGIFELKENDRIFVSVTNEHLIDMDHEASFFGAFLVG
notes: also called huTRAIL
B2: human TNF-R (p80 form) (receptor, UniProt P20333 23-257, looked up)
chain: LPAQVAFTPYAPEPGSTCRLREYYDQTAQMCCSKCSPGQHAKVFCTKTSDTVCDSCEDSTYTQLWNWVPECLSCGSRCSSDQVETQACTREQNRICTCRPGWYCALSKQEGCRLCAPLRKCRPGFGVARPGTETSDVVCKPCAPGTFSNTTSSTDICRPHQICNVVAIPGNASMDAVCTSTSPTRSMAPGAVHLPQPVSTRSQHTQPTPEPSTAPSTSFLLPMGPSPPAEGSTGD
B3: human OX40 (receptor, UniProt P43489 29-214, looked up)
chain: LHCVGDTYPSNDRCCHECRPGNGMVSRCSRSQNTVCRPCGPGFYNDVVSSKPCKPCTWCNLRSGSERKQLCTATQDTVCRCRAGTQPLDSYKPGVDCAPCPPGHFSPGDNQACKPWTNCTLAGKHTLQPASNSSDAICEDRDPPATQPQETQGPPARPITVQPTEAWPRTSQGPSTRPVEVPGGRA
B4: human CD27 (receptor, UniProt P26842 20-191, looked up)
chain: ATPAPKSCPERHYWAQGKLCCQMCEPGTFLVKDCDQHRKAAQCDPCIPGVSFSPDHHTRPHCESCRHCNSGLLVRNCTITANAECACRNGWQCRDKECTECDPLPNPSLTARSSQALSPHPQPTHLPYVSEMLEARTAGHMQTLADFRQLPARTLSTHWPPQRSLCSSDFIR
B5: human LTβR (receptor, UniProt P36941 31-227, looked up)
chain: QAVPPYASENQTCRDQEKEYYEPQHRICCSRCPPGTYVSAKCSRIRDTVCATCAENSYNEHWNYLTICQLCRPCDPVMGLEEIAPCTSKRKTQCRCQPGMFCAAWALECTHCELLSDCPPGTEAELKDEVGKGNNHCVPCKAGHFQNTSSPSARCQPHTRCENQGLVEAAPGTAQSDTTCKNPLEPLPPEMSGTMLM
notes: also called TNFR-RP

Key:
human CD30 = biological target: T1, human CD30; experiment: slide autoradiography (procedure of Gearing et al.)
Procedure: (§1) TRAIL was tested for ability to bind receptors of the TNF-R family of receptors. The binding analysis was conducted using the slide autoradiography procedure of Gearing et al. (EMBO J. 8:3667, 1989).

[1] = biological target: B1; experiment: as above
Procedure: as §1

binding result (human CD30)	binding result [1]	Binder
no binding	–	B1
–	no binding	B2
–	no binding	B3
–	no binding	B4
–	no binding	B5
